The text below walks through data of paper doi:10.1101/2025.10.28.685015 (bioRxiv, 2025).

No end group written: not given here.

This assay addresses T1, biotinylated ALFA-tag peptide (WT) (synthetic construct, also: biotin with double DoA linker, end not given here).
T1 chain: SRLEEELRRRLTE
As to the kind of experiment: BLI.

B1: ALFA nanobody (NbALFA) (VHH)
VHH: EVQLQESGGGLVQPGGSLRLSCTASGVTISALNAMAMGWYRQAPGERRVMVAAVSERGNAMYRESVQGRFTVTRDFTNKMVSLQMDNLKPEDTAVYYCHVLEDRVDSFHDYWGQGTQVTVSS
In the case of B1, binding was characterised by a dissociation constant (Kd) of 0.165 ± 0.002 nM.
